How the values were obtained:
Experiment in all cases: binding ELISA on coated antigen (8 µg/mL), HRP anti-Fc detection, 450 nm (Experimental Example 2.5)
[1] = target: T1, CD300c antigen (11832-H08H, Sino Biological) (human, UniProt Q08708 21-183)
T1 construct: Bought antigen; also called CD300c protein; CD300 antigen-like family member C
T1 sequence (looked up): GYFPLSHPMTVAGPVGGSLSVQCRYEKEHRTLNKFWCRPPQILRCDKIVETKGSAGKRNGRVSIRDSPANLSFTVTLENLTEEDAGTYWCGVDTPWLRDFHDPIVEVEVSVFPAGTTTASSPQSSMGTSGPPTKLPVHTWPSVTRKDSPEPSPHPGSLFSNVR
Protocol: (§1) In order to identify that the anti-CD300c monoclonal antibody CL7 specifically binds only to CD300c without binding to other B7 family proteins, binding ELISA was performed. More specifically, each of CD300c antigen, CD300a antigen, or seven B7 family protein antigens (PD-L1 [B7-H1] (Sino Biological), ICOS Ligand[B7-H2] (Sino Biological), CD276[B7-H3] (Sino Biological), B7-H4 (Sino Biological), CD80[B7-1] (Sino Biological), CD86[B7-2] (Sino Biological), CD273[PD-L2] (Sino Biological)) in a coating buffer (0.1 M sodium carbonate, pH 9.0) was coated on an ELISA plate at a concentration of 8 μg/mL per well, and then bound to the plate by incubation at 2° C. to 8° C. overnight. The unbound antigen was removed by washing with PBST three times, and then […] of blocking buffer (5% skim milk in PBST) was added to each well. Subsequently, blocking was performed at room temperature for 1 hour, followed by washing again with PBST. Thereafter, CL7 was diluted in quadruplicate with PBS, incubated with the antigen at room temperature for 1 hour for antigen binding 1 hour later, and washed three times with PBST. Then, a secondary antibody (HRP-conjugated anti-Fc IgG) diluted to 4 μg/mL in blocking buffer was added thereto, followed by incubation at room temperature for 1 hour. Subsequently, the unbound antibody for detection was removed using PBST, and then a TMB solution was added thereto, followed by incubation for 10 minutes for development. Then, 2 N sulfuric acid solution was added to terminate the development reaction, and the absorbance was measured at 450 nm to identify the antibody specifically binding to the CD300c antigen.

[2] = target: T2, ICOS Ligand[B7-H2] (Sino Biological) (UniProt O75144 19-258, limits assumed)
T2 sequence (looked up): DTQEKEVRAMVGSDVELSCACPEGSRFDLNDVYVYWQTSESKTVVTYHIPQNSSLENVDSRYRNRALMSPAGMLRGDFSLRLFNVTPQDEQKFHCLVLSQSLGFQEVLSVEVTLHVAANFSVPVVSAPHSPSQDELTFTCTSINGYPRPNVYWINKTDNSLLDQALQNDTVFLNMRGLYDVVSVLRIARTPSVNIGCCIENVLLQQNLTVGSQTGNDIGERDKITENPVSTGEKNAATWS
Protocol: as §1

B7-H4 (Sino Biological) = target: T3, B7-H4 (Sino Biological) (UniProt Q7Z7D3 25-258, limits assumed)
T3 sequence (looked up): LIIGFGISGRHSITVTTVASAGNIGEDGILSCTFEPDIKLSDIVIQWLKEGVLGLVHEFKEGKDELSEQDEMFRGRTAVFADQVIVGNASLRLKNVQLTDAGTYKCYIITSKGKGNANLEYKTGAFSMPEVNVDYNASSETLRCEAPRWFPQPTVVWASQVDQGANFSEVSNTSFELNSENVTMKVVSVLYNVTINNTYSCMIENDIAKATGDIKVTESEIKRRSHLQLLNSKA
Protocol: as §1

[3] = target: T4, CD86[B7-2] (Sino Biological) (UniProt P42081 24-245, limits assumed)
T4 sequence (looked up): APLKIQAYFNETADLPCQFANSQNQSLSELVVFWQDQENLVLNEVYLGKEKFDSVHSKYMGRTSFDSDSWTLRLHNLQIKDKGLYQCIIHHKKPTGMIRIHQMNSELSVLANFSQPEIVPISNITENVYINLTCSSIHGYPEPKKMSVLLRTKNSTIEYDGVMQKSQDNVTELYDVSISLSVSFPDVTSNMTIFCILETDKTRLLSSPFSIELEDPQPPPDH
Protocol: as §1

[4] = target: T5, CD273[PD-L2] (Sino Biological) (UniProt Q9BQ51 20-219, limits assumed)
T5 sequence (looked up): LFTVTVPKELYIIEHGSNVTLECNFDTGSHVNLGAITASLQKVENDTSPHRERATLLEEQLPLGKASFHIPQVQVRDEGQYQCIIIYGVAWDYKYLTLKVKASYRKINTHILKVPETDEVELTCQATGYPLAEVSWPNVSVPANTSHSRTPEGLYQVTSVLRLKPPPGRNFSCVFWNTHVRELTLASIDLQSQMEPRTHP
Protocol: as §1

[5] = target: T6, CD276[B7-H3] (Sino Biological) (UniProt Q5ZPR3 29-461, limits assumed)
T6 sequence (looked up): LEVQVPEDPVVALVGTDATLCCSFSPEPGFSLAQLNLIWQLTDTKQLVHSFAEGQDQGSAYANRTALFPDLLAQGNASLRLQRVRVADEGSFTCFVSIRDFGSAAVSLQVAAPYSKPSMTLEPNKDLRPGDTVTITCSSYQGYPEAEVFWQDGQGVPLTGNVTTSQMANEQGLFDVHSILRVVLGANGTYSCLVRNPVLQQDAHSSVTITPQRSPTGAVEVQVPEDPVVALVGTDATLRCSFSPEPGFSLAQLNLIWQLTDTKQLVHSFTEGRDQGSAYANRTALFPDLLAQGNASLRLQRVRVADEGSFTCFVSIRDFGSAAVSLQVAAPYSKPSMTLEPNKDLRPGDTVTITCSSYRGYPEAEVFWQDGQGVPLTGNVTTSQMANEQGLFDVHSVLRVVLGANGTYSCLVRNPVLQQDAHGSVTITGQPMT
Protocol: as §1

- EC50 (read off the curve) [1]: ~0.2 µg/mL
B1: CL7 (antibody, V domains shown)
VH: EVQLLESGGGLVQPGGSLRLSCAASGFTFSRYAMSWVRQAPGKGLEWVSAISGSGGSTYYADSVKGRFTISRDNSKNTLYLQMNSLRAEDTAVYYCARSSQGIFDIWGQGTLVTVSS
VL: QSVLTQPPSASGTPGQRVTISCSGNNIGTRRVHWYQQLPDTAPKLLIYSKNNRPSGVPDRFSGSKSGTSASLAISGLRSEDEADYYCAAWDDSLSGPVFGGGTKLTVL
notes: detected with anti-human IgG (H+L) and anti-Fc IgG; also called anti-CD300c monoclonal antibody CL7; anti-CD300c monoclonal antibody (CL7)
- binding result [2]: no binding (tested: log10 about 0.4 ug/ml (about 2.5 ug/ml))
- binding result (B7-H4 (Sino Biological)): no binding (tested: log10 about 0.4 ug/ml (about 2.5 ug/ml))
- binding result [3]: no binding (tested: log10 about 0.4 ug/ml (about 2.5 ug/ml))
- binding result [4]: no binding (tested: log10 about 0.4 ug/ml (about 2.5 ug/ml))
- binding result [5]: no binding (tested: log10 about 0.4 ug/ml (about 2.5 ug/ml))

From US20240254220A1 (CENTRICSBIO, published 2024)
